Data: patent US20060062761A1

What follows are binders tested against HLA-DR DRB1*0701 on fixed MOU (MANN) cells (human) (assay: competition). Conditions: modification not given.

**Q.** Which IC50 does the source give for FGNQFQKAETIPVLH [15] here?
**A.** 25 µM

**Q.** KEDSILAVRKYFQRI [38] was tested. Which IC50 did it give?
**A.** > 500 µM

**Q.** IQGVGVTETPLMKED [34] was tested. Which IC50 did it give?
**A.** > 500 µM

**Q.** How did the IC50 turn out when SLFSCLKDRHDFGFP [9] was run?
**A.** > 500 µM

**Q.** Which IC50 does the source give for TETPLMKEDSILAVR [36] here?
**A.** > 500 µM

**Q.** How did the IC50 turn out when VGVTETPLMKEDSIL [35] was run?
**A.** > 500 µM

**Q.** For TLYLKEKKYSPCAWE [43], which IC50 is on record?
**A.** > 500 µM

**Q.** How did the IC50 turn out when LKEKKYSPCAWEVVR [44] was run?
**A.** > 500 µM

**Q.** For SILAVRKYFQRITLY [39], which IC50 is on record?
**A.** 60 µM

**Q.** With KDRHDFGFPQEEFGN [11] as the binder, how does the IC50 read?
**A.** > 500 µM

**Q.** How did the IC50 turn out when AVRKYFQRITLYLKE [40] was run?
**A.** 70 µM

**Q.** For HDFGFPQEEFGNQFQ [12], which IC50 is on record?
**A.** > 500 µM

**Q.** VVRAEIMRSFSLSTN [48] was tested. Which IC50 did it give?
**A.** 7 µM

**Q.** How did the IC50 turn out when SCLKDRHDFGFPQEE [10] was run?
**A.** > 500 µM

**Q.** With AEIMRSFSLSTNLQE [49] as the binder, how does the IC50 read?
**A.** 15 µM

**Q.** How did the IC50 turn out when KKYSPCAWEVVRAEI [45] was run?
**A.** 200 µM

**Q.** How did the IC50 turn out when PLMKEDSILAVRKYF [37] was run?
**A.** > 500 µM

**Q.** With SPCAWEVVRAEIMRS [46] as the binder, how does the IC50 read?
**A.** 8 µM

**Q.** For QEEFGNQFQKAETIP [14], which IC50 is on record?
**A.** > 500 µM

**Q.** GFPQEEFGNQFQKAE [13] was tested. Which IC50 did it give?
**A.** > 500 µM

These binders were tested against HLA-DR DRB1*0101 on fixed HOM-2 cells (human) (assay: competition). Conditions: modification not given.

**Q.** Which IC50 does the source give for KEDSILAVRKYFQRI [38] here?
**A.** > 500 µM

**Q.** For IQGVGVTETPLMKED [34], which IC50 is on record?
**A.** > 500 µM

**Q.** For TETPLMKEDSILAVR [36], which IC50 is on record?
**A.** 25 µM

**Q.** VGVTETPLMKEDSIL [35] was tested. Which IC50 did it give?
**A.** > 500 µM

**Q.** Which IC50 does the source give for AQMRRISLFSCLKDR [7] here?
**A.** 150 µM

**Q.** With SILAVRKYFQRITLY [39] as the binder, how does the IC50 read?
**A.** 100 µM

**Q.** AVRKYFQRITLYLKE [40] was tested. Which IC50 did it give?
**A.** 95 µM

**Q.** Which IC50 does the source give for RRISLFSCLKDRHDF [8] here?
**A.** 180 µM

**Q.** For VVRAEIMRSFSLSTN [48], which IC50 is on record?
**A.** 25 µM

**Q.** How did the IC50 turn out when AEIMRSFSLSTNLQE [49] was run?
**A.** 15 µM

**Q.** QFQKAETIPVLHEMI [16] was tested. Which IC50 did it give?
**A.** 350 µM

**Q.** PLMKEDSILAVRKYF [37] was tested. Which IC50 did it give?
**A.** 85 µM

Each binder was assayed against HLA-DR DRB1*0401 on fixed WT-51 cells (human) (assay: competition). Conditions: modification not given.

**Q.** For KDSSAAWDETLLDKF [24], which IC50 is on record?
**A.** 450 µM

**Q.** With YTELYQQLNDLEACV [29] as the binder, how does the IC50 read?
**A.** 5 µM

**Q.** How did the IC50 turn out when FNLFSTKDSSAAWDE [22] was run?
**A.** > 500 µM

**Q.** With QQIFNLFSTKDSSAA [21] as the binder, how does the IC50 read?
**A.** 70 µM
